From the nanobody polyreactivity screen of Harvey et al. (2022)

Experiment: yeast display, Sf9 membrane polyspecificity reagent, FACS + sequencing; frameworks hold sequencing errors
Procedure, shortened: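 Nanobodies from a synthetic yeast display library (Saccharomyces cerevisiae BJ5465), induced 36–48 hours with galactose, were stained 1 hour at 4 °C with 10% biotinylated, detergent-solubilized Sf9 membrane reagent, enriched on streptavidin microbeads, then FACS-sorted. Anti-HA (expression) and streptavidin (reagent binding) fluorescence set low and high (top ~1%) gates. Polyreactivity labels come from the gate of origin. Genes were colony-PCR amplified, MiSeq 2 × 250 sequenced and filtered by CDR length.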

Sequence | polyreactivity (PSR sort gate)
QVQLVESGGGLVQAGGSLRLSCAASGFIFSGYAMGWYRQAPGKERELVATISGSGGSTYYADSVKGRFTISRDNAKNTVYLQMNSLKPEDTAVYYCNALYASSVRHKVTYDYWGQGTQVTVSS | high polyreactivity
QVQLVESGGGLVQAGGSLRLSCAASGFIFSHYAMGWYRQAPGKERELVAAISWSGDSTYYADSVKGRFTLSRDNAKNTVDLQMNSLKPEDTAVYYCNAVYFWVRYLKFLEFGYWGQGTQVTVSS | high polyreactivity
QVQLVESGGGLVQAGGSLRLSCAASGFIFSKYAMGWYRQAPGKERELVAAITGGGSTNYADSVKGRFTISRDNAKNTVYLQMTSLKPEDTAVYYCAARGFTLTDYDRDLYYWGQGTQVTVSS | low polyreactivity
QVQLVESGGGLVQAGGSLRLSCAASGFIFSLYAMGWYRQAPGKERELVAAINWNGGRTYYADSVKGRFTISRDNAKNTVYLQMNSLKPEDTAVYYCAKLGYLGLDYWGQGTQVTVSS | high polyreactivity
QVQLVESGGGLVQAGGSLRLSCAASGFIFSLYAMGWYRQAPGKERELVAAISKRGGSTNYADSVKGRFTISRDNAKNTVFLQMNSLKPEDTAVYYCAKARPGFLYDHWGQGTEVTVSS | high polyreactivity
QVQLVESGGGLVQAGGSLRLSCAASGFIFSQYAMGWYRQAPGTERELVAVISKSSGSTYYADSVKGRFTISCDNAKNTVYLQMNSLKPEDTAVYYCNRRYYYRTYDYWGQGTQVTVSS | high polyreactivity
QVQLVESGGGLVQAGGSLRLSCAASGFIFSRNAMGWYRQAPGKERELVAAISLRGGSTYYADSVKGRFTISRDNAKNTVYLQMNSLKPEDTAVYYCAADSVLTPYDYWVQGTQVTVSS | low polyreactivity
QVQLVESGGGLVQAGGSLRLSCAASGFIFSRNAMGWYRQAPGKERELVAAISSTGGITYYADSVKGRFTISRDNAKITVYLQMNSLKPEDTAVYYCAAGFYGYARHSWYKYWGQGTQVTVSS | high polyreactivity
QVQLVESGGGLVQAGGSLRLSCAASGFIFSSNAMGWYRQAPGKERELVAAITSSGGGTYYADSVKGRFTISRDNAKNTVYLQMNSLKPEDTAVYYCNAAYKYAIPSYGYWGQGTQVTVSS | low polyreactivity
QVQLVESGGGLVQAGGSLRLSCAASGFIFSSYAMGWYRQAPGKEMELVAAISWSGGRTYYADPVKGRFTISRDNAKNTVYLQLNSLKPEDTAVYYCNARYPYPYWYTSYDYWGQGTQVTVSS | high polyreactivity
QVQLVESGGGLVQAGGSLRLSCAASGFIFSSYAMGWYRQAPGKERELVARISLSGGSTFYADSVKGRFTISRDNAKNTVYLQMNSLKPEDTAVYYCAARDFSTHFSPMDYWGQGPQVTVSS | low polyreactivity
QVQLVESGGGLVQAGGSLRLSCAASGFIFSTNFMGWYRQAPGKERELVADINTGGSTSYADSVKGRFTISRDNAKNTVYLQMNSLKPEDTAVYYCAAVLQYYYLSTDDPYDYWGQGTQVTVSS | low polyreactivity
QVQLVESGGGLVQAGGSLRLSCAASGFIFSTYAMGWYRQAPGKERELVAAISWSGGRTNYADSVKGRFTISRDNAKNTVYLQMNSLKPEDTAVYYCAVGGERGARIGSNHRGSRYDYWGQGTQVTVSS | high polyreactivity
QVQLVESGGGLVQAGGSLRLSCAASGFIFSVYAMGWYRQAPGKERELVAVISTSGGRTYYADSVKGRFTISRDNAKNTVYLQMNSLKPEDTAVYYCAADGFQYTLGNYYWGQGTQVTVSS | high polyreactivity
QVQLVESGGGLVQAGGSLRLSCAASGFIFSWYAMGWYRQAPGKERELVAAIDQSGDSTYYADSVKGRFTISRDNAKNTVYLQMNSLKPEDTAVYYCAAQSYDYWYDYDYWGQGTQVTVSS | high polyreactivity
QVQLVESGGGLVQAGGSLRLSCAASGFIFSWYAMGWYRQAPGKERELVAAISRSGTRTYYADSVKGRFTISRDNAKNTVYLQMNSLKPEDTAVYYCAAAAKSWLFDYWGQGTQVTVSS | high polyreactivity
QVQLVESGGGLVQAGGSLRLSCAASGFIFSYNAMGWYRQAPGKERELVAAISARGGSTYYADSVKGRFTISRDNAKNTVYLQMNSLKPEDTAVYYCNRKQAGHAQGYDYWGQGTQVTVSS | high polyreactivity
QVQLVESGGGLVQAGGSLRLSCAASGFIFSYYAMGWYRQAPGKERELVAAINWSGGSTYYADSVKGRFTISRDNAKNTVFLQMNSLKPEDTAVYYCAAYSSWHPYDYWGQGTQVTVSS | high polyreactivity
QVQLVESGGGLVQAGGSLRLSCAASGFIFSYYAMGWYRQAPGKERELVAAISRNGGRTYYADSVKGRFTISRDNAKNTVYLQMNSLKPEDTAVYYCATGKIREDDYWGQGTQVTVSS | high polyreactivity
QVQLVESGGGLVQAGGSLRLSCAASGFIFSYYAMGWYRQAPGKERELVAAISSSGSRTYYADSVKGRFTISRDNAKNTVYLQMNSLKPEDTAVYYCAARGAAKYGYWGQGTQVTVSS | high polyreactivity
QVQLVESGGGLVQAGGSLRLSCAASGFIFSYYAMGWYRQAPGKERELVAAITQSGGGTYYADSVKGRFTISRDNAKNTVYLQMNSLKPEDTAVYYCAKSRRVYSREGWFHYRAYGYWGQGTQVTVSS | high polyreactivity
QVQLVESGGGLVQAGGSLRLSCAASGFIFSYYTMGWYRQAPGKERELVAAISRRGGSTYYADSVQGRFTISRDNAKNTVYLQRNSLKPEDTAVYYCAAPRDWDAGDYWGQGTQVTVSS | high polyreactivity

Sequence | polyreactivity (PSR sort gate)
QVQLVESGGGLVQAGGSLRLSCAASGFIFTDYAMAWYRQAPGKERELVAAISYGGRTYYADSVKGRFTISRDNAKNTVYLQMNSLKPEDTAVYYCAAEKWDRYSSWSDYWGQGTQVTVSS | high polyreactivity
QVQLVESGGGLVQAGGSLRLSCAASGFIFTDYAMGWYRQAPGKERELVAAISSGGRTYYAVSVKGRFTISRDNAKNTVYIQMNSLKPEDTAVYYCARGGRAEGWGQGTQVTVSS | high polyreactivity
QVQLVESGGGLVQAGGSLRLSCAASGFIFTGNAMGWYRQAPGKERELLAAISSSGTRTYYADSVKGRFTISRDNASNTVYLQMNSLKPEDTAVYYCNKLYLVWNFYSGYDYWGQGTQVTVSS | high polyreactivity
QVQLVESGGGLVQAGGSLRLSCAASGFIFTGYAMGWYRQAPGKERELVAAISWTGDSTYYADSVKGRFTISRDNAKNTVYLQMNSLKPEDTAVYYCAARSYRKPSSRRFDYWGQGTQVTVSS | low polyreactivity
QVQLVESGGGLVQAGGSLRLSCAASGFIFTGYAMGWYRQAPGKERELVASISSGGSTYYADSVKGRFTISRDNAKNTVYLLMNSLKPEDTAVYYCNASVSLGRYPGNEYDYEYWGQGTQVTVSS | low polyreactivity
QVQLVESGGGLVQAGGSLRLSCAASGFIFTIYVMGWYRQAPGKERELVAAISKSVGRTYYADSVKGRFTISRDNAKNTVYLQMNSLKPEDTAVYYCAAVYVKYYGGSYDYWGQGTQVTVSS | high polyreactivity
QVQLVESGGGLVQAGGSLRLSCAASGFIFTLNAMGWYRQAPGKERELVASISSGVSTNYADSVKGRFTISRDNAKNTVYLQMNSLKPEDTAVYYCAARDTGPDGFEGDYWGQGTQVTVSS | low polyreactivity
QVQLVESGGGLVQAGGSLRLSCAASGFIFTLYTMGWYRQAPGKERELVAAIDKNGSTYYADSVKGRFTISRDNAKNTVYLQMNSLKPEDTAVYYCAADDRYRGNREDYWGQGTQVNVSS | low polyreactivity
QVQLVESGGGLVQAGGSLRLSCAASGFIFTPYAMGWYRQAPGKERELVAAIRNTGSTYYADSVKGRFTISRDNAKNTVYLQMNSLKPEDTAVYYCNARRYRWAVVKGGYWGQGTQVTVSS | high polyreactivity
QVQLVESGGGLVQAGGSLRLSCAASGFIFTPYTMGWYSQAPGKERELVAAITDGSSTYYADSVKGRFTISRDNAKNTVYLQMNSLKPEDTALYYCNADGKPPYNSWLYDYWGQGTQVTVTS | low polyreactivity
QVQLVESGGGLVQAGGSLRLSCAASGFIFTQYAMGWYRQAPGKERELVAAISTSGGRTFYADSVKGRFTISRDNAKNTVYLQMNSLKPEDTAVYYCGARPGYLYDYWGQGTQVTVSS | high polyreactivity
QVQLVESGGGLVQAGGSLRLSCAASGFIFTRNAMGLYRQAPGTERELVAVISYGGGSTYYADSVKGRFTISRDNAKNTVYLQMNSLKPEDTAVYYCAADQNWRYYYHYTYYYWGQGTQVTVSS | high polyreactivity
QVQLVESGGGLVQAGGSLRLSCAASGFIFTRYAMGWYRQAPGKERELVAVITSSGGTYYADSVKGRFTISRDNAKNTVYLQMNSLKPEDTAVYYCNAVLGYYTYDYWGQGTQVTVSS | high polyreactivity
QVQLVESGGGLVQAGGSLRLSCAASGFIFTVNAMGWYRQAPGKDRELVAAITSGGNTYYADSVKGRFTISRDNAKNTVYLQMNSLKPEDTAVYYCNAVFYTWSPYGTTVRSYGYWGQGTQVTVSS | high polyreactivity
QVQLVESGGGLVQAGGSLRLSCAASGFIFTYYAMGWYRQAPGKERELVAAITVRGGSTYYADSVKGRFTISRDNAKNTVYLQMNSLKPEDTGVYYCNTVHGLWRRYNYWGQGTQVTVSS | high polyreactivity
QVQLVESGGGLVQAGGSLRLSCAASGFIFTYYDMGWYRQAPGKERELVASISWDGGRTYYADSVKGRFTISRDNAKNTVYLQMNSLKPEDTAVYYCNADGSSYWYPVPLDGGDYWGQGTQVTVSS | low polyreactivity
QVQLVESGGGLVQAGGSLRLSCAASGFIFVANAMGWYRQAPGKEREFFAAISSSGGRTYYADSVKGRFTISRDNAKNTVYLQMNSLKPEDTAVYYCAKDRVFSRRGFGYWGQGTQVTVSS | low polyreactivity
QVQLVESGGGLVQAGGSLRLSCAASGFIFVDYDMGWYSQAPGKERELVAAINWSGGSTDYADSVKGRFTISRDNAKNTVYLQMNSLKPEDTAVYYCAAEGQDGRFYWGQGTQVTVSS | low polyreactivity
QVQLVESGGGLVQAGGSLRLSCAASGFIFVHNAMGWYRQAPGKERELVATISRRGGSTYYADSVKGRFTISRDNAKNTVYLQMNILKPEDTAVYYCAARTYGYYLYDYWGQGTQVTVSS | high polyreactivity
QVQLVESGGGLVQAGGSLRLSCAASGFIFVIYAKGWYRQAPGKERELVARISFRSGRTYYADSVKGRFTISRDNAKNTVYLQMNSLKPEDTAVYYCNAVLYGQYKYDYWGQGTQVTVSS | high polyreactivity
QVQLVESGGGLVQAGGSLRLSCAASGFIFVIYAMGWYRQAPGKERELVARISFRSGRTYYADSVKGRFTISRDNAKNTVYLQMNSLKPEDTAVYYCNAVLYGQYKYDYWGQGTQVTVSS | high polyreactivity
